Test results as given in patent US20240301076A1.
Blank lines part the entries; values can stand above or below the substance they belong to.

Molecular target: human CXCR2 (human) (UniProt P25025)
Experiment: cell-based or functional assay

human CXCR2 (human), sequence (P25025 whole entry): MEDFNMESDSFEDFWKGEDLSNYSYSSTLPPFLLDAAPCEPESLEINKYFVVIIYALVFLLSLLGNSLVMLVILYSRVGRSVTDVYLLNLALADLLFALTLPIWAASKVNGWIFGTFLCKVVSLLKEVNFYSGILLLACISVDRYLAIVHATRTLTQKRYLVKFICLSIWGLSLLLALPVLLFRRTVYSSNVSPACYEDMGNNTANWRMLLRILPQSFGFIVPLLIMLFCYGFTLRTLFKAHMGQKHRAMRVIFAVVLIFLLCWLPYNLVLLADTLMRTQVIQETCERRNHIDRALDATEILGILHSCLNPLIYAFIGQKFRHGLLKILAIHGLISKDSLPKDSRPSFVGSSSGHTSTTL
human CXCL5, sequence (P42830 37-114 limits assumed): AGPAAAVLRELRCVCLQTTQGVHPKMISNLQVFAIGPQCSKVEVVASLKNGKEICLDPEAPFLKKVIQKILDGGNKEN
human CXCL2, sequence (P19875 35-107 limits assumed): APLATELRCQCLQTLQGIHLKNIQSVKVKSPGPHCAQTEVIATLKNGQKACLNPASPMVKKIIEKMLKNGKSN
human CXCL1, sequence (P09341 35-107 limits assumed): as the sequence (P19875 35-107 limits assumed) above, with P2S, L3V, L20P, K27N, Q48R, M58I, K68N, N69S, G70D counted along it
human CXCL6, sequence (P80162 38-114 limits assumed): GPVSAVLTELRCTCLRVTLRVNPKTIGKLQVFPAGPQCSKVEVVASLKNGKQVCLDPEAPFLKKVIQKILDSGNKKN
human CXCL3, sequence (P19876 35-107 limits assumed): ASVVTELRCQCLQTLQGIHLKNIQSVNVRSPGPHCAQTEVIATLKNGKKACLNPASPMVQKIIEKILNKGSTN
human CXCL8, sequence (P10145 28-99 limits assumed): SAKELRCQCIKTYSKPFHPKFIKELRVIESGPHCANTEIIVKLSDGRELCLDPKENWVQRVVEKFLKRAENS

CXCL1 IC50, calcium flux: 1.29 nM
CXCL1 IC50, β-arrestin recruitment: 1.47 nM
CXCL1 Maximal Inhibition %, calcium flux: 93%
CXCL1 Maximal Inhibition %, β-arrestin recruitment: 96%
CXCL5 IC50, β-arrestin recruitment: 0.75 nM
CXCL5 Maximal Inhibition %, β-arrestin recruitment: 99%
CXCL8 IC50, β-arrestin recruitment: 1.01 nM
CXCL8 Maximal Inhibition %, calcium flux: 1%
CXCL8 Maximal Inhibition %, β-arrestin recruitment: 94%
Substance: Antagonist 4 (anti-CXCR2 antibody clone 6C6, BD Biosciences 555932)

EC50 mean, Tango assay: 97.7 nM
EC50 mean, calcium flux assay: 39.2 nM
Substance: human CXCL5 (from UniProt P42830 37-114) (ligand)

CXCL1 IC50, calcium flux: 30.7 nM
CXCL1 IC50, β-arrestin recruitment: 14.8 nM
CXCL1 Maximal Inhibition %, calcium flux: 37%
CXCL1 Maximal Inhibition %, β-arrestin recruitment: 85%
CXCL5 IC50, β-arrestin recruitment: 8.12 nM
CXCL5 Maximal Inhibition %, β-arrestin recruitment: 96%
CXCL8 Maximal Inhibition %, calcium flux: 18%
CXCL8 Maximal Inhibition %, β-arrestin recruitment: 82%
Substance: Antagonist 3 (anti-CXCR2 antibody clone 48311, R&D systems MAB331-500)

EC50 mean, Tango assay: 33.3 nM
EC50 mean, calcium flux assay: 37 nM
Substance: human CXCL2 (from UniProt P19875 35-107) (ligand)

EC50 mean, Tango assay: 9.4 nM
EC50 mean, calcium flux assay: 28.9 nM
Substance: human CXCL6 (from UniProt P80162 38-114) (ligand)

EC50 mean, Tango assay: 11.9 nM
EC50 mean, calcium flux assay: 12.2 nM
Substance: human CXCL3 (from UniProt P19876 35-107) (ligand)

EC50 mean, Tango assay: 2.2 nM
EC50 mean, calcium flux assay: 3.2 nM
Substance: human CXCL8 (from UniProt P10145 28-99) (ligand)

EC50 mean, Tango assay: 2.3 nM
EC50 mean, calcium flux assay: 2.62 nM
Substance: human CXCL1 (from UniProt P09341 35-107) (ligand)
